Experimental data published in publication PMC4873810.

Biological target: mouse embryonic heparan sulfate (HS) coupled to HiTrap column
Test: HS affinity chromatography (FPLC)
Settings: 0-1.5 M NaCl gradient from fraction 5 to 14, parent: est. 100, read off a plot
[1] = value is the height of the salt-eluted peak at fraction 12

| Substance | response [1] [%] | response (value is the height of the salt-eluted peak at about fraction 12) [%] |
| --- | --- | --- |
| Scube2 (signal peptide, CUB domain, epidermal growth factor (EGF)-like protein 2), full-length, FLAG-tagged (from UniProt Q9NQ36) K608A; R609A; K612A; R613A; R615A; K616A; R619A; R622A; K623A; H626A; R627A; K643A; K644A; R647A | 11 |  |
| Scube2 (signal peptide, CUB domain, epidermal growth factor (EGF)-like protein 2), full-length, FLAG-tagged (from UniProt Q9NQ36) K608E; R609E; K612E; R613E; R615E; K616E; R619E; R622E; K623E; H626E; R627E | 4 |  |
| Spacer (isolated Scube2 spacer domain) K608A; R609A; K612A; R613A; R615A; K616A; R619A; R622A; K623A; H626A; R627A; K643A; K644A; R647A |  | 5 |
